Assay results as given in patent US20160046680A1, “RADIOTRACER IMAGING USING SODIUM IODIDE SYMPORTER POLYPEPTIDES” (MAYO FOUNDATION FOR MEDICAL EDUCATION AND RESEARCH, priority 2013, published 2016).
Numbering of substitutions follows the chain as printed. Names and notes keep the numbering of the source. “Also recorded” adds a separate entry of the source.

What was measured:
NIS expressing cells = settings: cited from earlier work
[1] = system: endogenous NIS expressing organs (thyroid and stomach) and heterologous NIS expressing tumor cells; assay: Dual isotope SPECT/CT imaging of nude mice with BXPC-3-hNIS tumors; settings: four hours after i.p. administration of 250 μCi each
Protocol: FIG. 6. SPECT/CT dual isotope imaging of nude mice implanted with SQ BXPX-3-hNIS tumors. Animals were injected i.p with 250 μCi ^125I and 250 μCi ^99mTc and imaged four hours later. Images were processed using Vivo Quant software. The scale was adjusted manually to get minimal yellow in the tissues.
The stomach and thyroid signals were subtract from the SPECT dataset (FIG. 5). In this experiment, nude female mice (5-week of age) were injected with 3×10^6 BXPC-3-hNIS cells. When tumors reached a diameter of 1 cm, mice were injected I.P. with ^125I sodium iodide (250 μCi) and/or ^99mTc-pertechneate (250 μCi). Four hours post isotope administration, SPECT/CT data were acquired with U-SPECT-II (MiLabs). […] Radioiodide thyroid signal subtraction was performed by normalizing the ^125I SPECT data to thyroid tissue on the ^99mTc SPECT data using the image arithmetic tools available in PMOD image fusion software. This was performed in three steps by (1) calculating the normalization factor (i.e., the inverse ratio between the maximum voxel value corresponding to the thyroid tissue on the ^125I SPECT and the maximum voxel value corresponding to the thyroid tissue on the ^99mTc SPECT data set), (2) multiplying each voxel in the ^125I SPECT dataset by this normalization factor, and (3) subtracting the normalized ^125I SPECT dataset from ^99mTc SPECT data set to generate a thyroid subtraction SPECT dataset (FIG. 5C). Similarly, ^99mTc stomach signal subtraction was performed by (1) calculating the normalization factor which in this case is the inverse ratio of the maximum voxel value corresponding to the stomach tissue on the ^99mTc SPECT to the maximum voxel value corresponding to the stomach tissue in the ^125I SPECT data set, (2) multiplying each voxel in the ^99mTc SPECT dataset by this normalization factor, and (3) subtracting the normalized ^99mTc SPECT dataset from ^125I SPECT data set to generate a stomach subtraction SPECT dataset (FIG. 5B).

[2] = system: stomach signal from NIS polypeptide-mediated uptake of radioisotopes; settings: mouse fed by gavage, then imaged; NIS transduced liver
Source text: FIG. 2B is a photograph of the same mouse fed oral contrast agent.

Mel624 cells = assay: Radiotracer uptake assay in Mel624 cells stably expressing NIS polypeptides; assay type: cell-based; settings: for Uptake of pertechnetate (Technetium-99m) / Uptake of radioiodide (Iodine-125): Mel624 cells expressing the NIS polypeptide, 1 hour at 37° C., +/- 300 μM KClO4
Protocol: Mel624 cells stably expressing a wild-type human NIS polypeptide (Mel-NIS) or one of two mutant NIS polypeptides (Mel-NIS-93E or Mel-NIS-93Q) were plated in 96-well plates at a density that would lead them to confluency on the day of the uptake assay. 1×Hank's balanced salt solution with calcium, magnesium (HBSS) (Cellgro) and 1 mM HEPES was adjusted to pH 7.3 using KOH (HBBS-HEPES) on the day of the assay. Culture medium was removed from the cells, and 150 μL of HBSS-HEPES+/−300 μM KClO4 was added to the wells. The cells were incubated for 10 minutes at room temperature prior to the addition of radiotracer. Radiotracers, ^125I and ^99mTc, were diluted in HBSS-HEPES to about 70,000 to 100,000 CPM/25 μL (CPM, counts per minute). 25 μL of radiotracer was added to the cells in HBSS-HEPES+/−KClO4, and the cells were incubated at 37° C. for 1 hour. The cells were then washed twice with cold HBSS-HEPES buffer and lysed to release the intracellular radiotracer by adding 200 μL 1M NaOH. Lysates were transferred to strip tubes and quantified using a gamma counter.

Hela-YFP-IS cells = assay: Non-radioactive YFP-H148Q/I152L in vitro uptake assay; assay type: cell-based
Source text: FIG. 11 contains graphs plotting the relative fluorescence Hela-YFP-IS cells expressing no NIS (i) or the indicated mutant NIS (ii-viii) after treatment with I^−, ReO4^−, BF4^−, and ClO4^−. These graphs show the concentration dependence of I^−, ReO4^−, BF4^−, and ClO4^− induced changes in YFP-H148Q/I152L fluorescence in Hela-YFP-IS cells expressing the indicated NIS mutants.
Using an anti-HA-tag-Alexa-Fluor-647 monoclonal antibody, cells expressing the NIS mutants on the cell surface were labeled and quantified using flow cytometry. […] A non-radioactive YFP-H148Q/I152L in vitro uptake assay was used to monitor uptake of NIS substrates: […], […], BF4^−, and ClO4^−. The NIS mutants were co-expressed with YFP-H148Q/I152L, which decreased in fluorescence following an interaction with halides. […] This was particularly so at the lowest substrate concentrations, which are of clinical relevance as radiotracers used for imaging are administered to animals and humans in trace amounts. At 1-5 μM concentrations of substrate, NIS-Q72N transported less iodide but more ClO4^− into the cells.

[3] = 1-5 μM concentrations of substrate, YFP-H148Q/I152L fluorescence

[O-][Cl+3]([O-])([O-])O [perchlorate]
Efficiency of concentration in NIS expressing cells compared to iodide anions (less efficiently) (NIS expressing cells): 10 fold

[125I-].[Na+] [^125I, ^125I sodium iodide]
Accumulation in BXPC-3-hNIS tumor cells [1]: accumulate both isotopes to similar concentrations | Organ that preferentially accumulates the isotope [1]: thyroid preferentially accumulates

O=S(=O)([O-])[O-].[Ba+2] [barium sulfate]
Isotope signals from the stomach [2]: reduced isotope signals from the stomach

[O]=[99Tc](=[O])(=[O])[O-] [^99mTc, ^99mTc-pertechneate]
Accumulation in BXPC-3-hNIS tumor cells [1]: accumulate both isotopes to similar concentrations | Organ that preferentially accumulates the isotope [1]: stomach preferentially accumulates

B1: NIS-93E: mutant human sodium iodide symporter polypeptide, human NIS-93E (SEQ ID NO:1) (protein, listed as Homo sapiens)
chain: MEAVETGERPTFGAWDYGVFALMLLVSTGIGLWVGLARGGQRSAEDFFTGGRRLAALPVGLSLSASFMSAVQVLGVPSEAYRYGLKFLWMCLEQLLNSVLTALLFMPVFYRLGLTSTYEYLEMRFSRAVRLCGTLQYIVATMLYTGIVIYAPALILNQVTGLDIWASLLSTGIICTFYTAVGGMKAVVWTDVFQVVVMLSGFWVVLARGVMLVGGPRQVLTLAQNHSRINLMDFNPDPRSRYTFWTFVVGGTLVWLSMYGVNQAQVQRYVACRTEKQAKLALLINQVGLFLIVSSAACCGIVMFVFYTDCDPLLLGRISAPDQYMPLLVLDIFEDLPGVPGLFLACAYSGTLSTASTSINAMAAVTVEDLIKPRLRSLAPRKLVIISKGLSLIYGSACLTVAALSSLLGGGVLQGSFTVMGVISGPLLGAFILGMFLPACNTPGVLAGLGAGLALSLWVALGATLYPPSEQTMRVLPSSAARCVALSVNASGLLDPALLPANDSSRAPSSGMDASRPALADSFYAISYLYYGALGTLTTVLCGALISCLTGPTKRSTLAPGLLWWDLARQTASVAPKEEVAILDDNLVKGPEELPTGNKKPPGFLPTNEDRLFFLGQKELEGAGSWTPCVGHDGGRDQQETNL
Efficiency of concentrating iodide relative to TcO4 (Mel624 cells): concentrate iodide with greater efficiency than TcO4 | Concentration of Iodine-125 uptake in tumor cells as compared to non-mutated NIS (NIS WT) (Mel624 cells; FIGS. 1A and 1B): decrease the concentration of Iodine-125 uptake | Uptake of pertechnetate (Technetium-99m) (Mel624 cells): minimal or no uptake of pertechnetate; also recorded: not pertechnetate | Uptake of radioiodide (Iodine-125) (Mel624 cells): can uptake radioiodide; also recorded: capable of up-taking radioiodide | Uptake of pertechnetate (Technetium-99m) (Mel624 cells; listed as NIS-G93E): not Technetium-99m | Uptake of radioiodide (Iodine-125) (Mel624 cells; listed as NIS-G93E): transport selectively Iodine-125; also recorded: selectively transports Iodine-125

B2: wild-type human NIS polypeptide: wild-type human sodium iodide symporter polypeptide (protein, UniProt Q92911 1-643, looked up)
Sodium/iodide cotransporter: B1 chain with E93G
Uptake of pertechnetate (Technetium-99m) (Mel624 cells): Substantial uptake | Uptake of radioiodide (Iodine-125) (Mel624 cells): Substantial uptake

B3: NIS-Q72N: human NIS with Q72 mutated to N, N-terminal HA-tag (protein, UniProt Q92911 1-643, looked up, variant Q72N)
Sodium/iodide cotransporter: B1 chain with Q72N, E93G
modifications: N-terminal HA tag
ClO4- transported into the cells compared to wild-type NIS (Hela-YFP-IS cells; [3]): more ClO4^− | Iodide transported into the cells compared to wild-type NIS (Hela-YFP-IS cells; [3]): less iodide | Substrate transport profile compared to wild-type NIS (Hela-YFP-IS cells; I-, ReO4-, BF4-, ClO4-, FIGS. 11 and 12): altered substrate transport profile
